# According to patent US20230287145A1 (Hoffmann-La Roche, published 2023):
# Changes are numbered by the printed parent chain. Names may count otherwise.
# B1: TYRP1 TCB containing the parental CD3 binder CD3orig (bispecific antibody, human IgG1, kappa, L234A L235A)
# heavy 1: not shown
# heavy 2: QVQLVQSGAEVKKPGASVKVSCKASGFNIKDYFLHWVRQAPGQGLEWMGWINPDNGNTVYAQKFQGRVTMTADTSTSTVYMELSSLRSEDTAVYYCTRRDYTYEKAALDYWGQGTLVTVSSASTKGPSVFPLAPSSKSTSGGTAALGCLVEDYFPEPVTVSWNSGALTSGVHTFPAVLQSSGLYSLSSVVTVPSSSLGTQTYICNVNHKPSNTKVDEKVEPKSCDKTHTCPPCPAPEAAGGPSVFLFPPKPKDTLMISRTPEVTCVVVDVSHEDPEVKFNWYVDGVEVHNAKTKPREEQYNSTYRVVSVLTVLHQDWLNGKEYKCKVSNKALGAPIEKTISKAKGQPREPQVCTLPPSRDELTKNQVSLSCAVKGFYPSDIAVEWESNGQPENNYKTTPPVLDSDGSFFLVSKLTVDKSRWQQGNVFSCSVMHEALHNHYTQKSLSLSP
# light 1: DIQMTQSPSSLSASVGDRVTITCRASGNIYNYLAWYQQKPGKVPKLLIYDAKTLADGVPSRFSGSGSGTDFTLTISSLQPEDVATYYCQHFWSLPFTFGQGTKLEIKRTVAAPSVFIFPPSDRKLKSGTASVVCLLNNFYPREAKVQWKVDNALQSGNSQESVTEQDSKDSTYSLSSTLTLSKADYEKHKVYACEVTHQGLSSPVTKSFNRGEC
# light 2: EVQLLESGGGLVQPGGSLRLSCAASGFTFSTYAMNWVRQAPGKGLEWVSRIRSKYNNYATYYADSVKGRFTISRDDSKNTLYLQMNSLRAEDTAVYYCVRHGNFGNSYVSWFAYWGQGTLVTVSSASVAAPSVFIFPPSDEQLKSGTASVVCLLNNFYPREAKVQWKVDNALQSGNSQESVTEQDSKDSTYSLSSTLTLSKADYEKHKVYACEVTHQGLSSPVTKSFNRGEC
# notes: also called CD3orig in TCB format
# B2: TYRP1 TCB containing optimized anti-CD3 antibody clone P035.093 (bispecific antibody, human IgG1, kappa, L234A L235A)
# heavy 1: not shown
# heavy 2: B1 heavy 2
# light 1: B1 light 1
# light 2: B1 light 2 with T31S, H101A, G102S, G105P, N106A, W111Y
# notes: 2+1 IgG CrossFab, inverted, with charge modifications; knob-into-hole, P329G L234A L235A; also called CD3opt (P035.093); CD3 P035.093
# B3: TYRP1 TCB containing optimized anti-CD3 antibody clone P021.045 (bispecific antibody, human IgG1, kappa, L234A L235A)
# heavy 1: not shown
# heavy 2: B1 heavy 2
# light 1: B1 light 1
# light 2: B1 light 2 with T31S, H101A, G102S, G105P, N106S, W111Y
# notes: 2+1 IgG CrossFab, inverted, with charge modifications; knob-into-hole, P329G L234A L235A; also called CD3opt (P021.045)
# B4: TYRP1 TCB containing optimized anti-CD3 antibody clone P035.064 (bispecific antibody, human IgG1, kappa, L234A L235A)
# heavy 1: not shown
# heavy 2: B1 heavy 2
# light 1: B1 light 1
# light 2: EVQLLESGGGLVQPGGSLRLSCAASGFDFDNYAMNWVRQAPGKGLEWVSRIRSKHNGYATYYADSVKGRFTISRDDSKNTLYLQMNSLRAEDTAVYYCVRASNFPSSYVSYFGYWGQGTLVTVSSASVAAPSVFIFPPSDEQLKSGTASVVCLLNNFYPREAKVQWKVDNALQSGNSQESVTEQDSKDSTYSLSSTLTLSKADYEKHKVYACEVTHQGLSSPVTKSFNRGEC
# notes: 2+1 IgG CrossFab, inverted, with charge modifications; knob-into-hole, P329G L234A L235A; also called CD3opt (P035.064)
# B5: TYRP1 TCB containing optimized anti-CD3 antibody clone P004.042 (bispecific antibody, human IgG1, kappa, L234A L235A)
# heavy 1: not shown
# heavy 2: B1 heavy 2
# light 1: B1 light 1
# light 2: B4 light 2 with D28Q, S53T, H55Y, G57E, S106Q
# notes: 2+1 IgG CrossFab, inverted, with charge modifications; knob-into-hole, P329G L234A L235A; also called CD3opt (P004.042)
# B6: Humanized variant H3L3 of anti-idiotypic antibody 4.24.72 (IgG) (antibody, V domains shown)
# VH: QVQLVQSGSELKKPGASVKVSCKASGYTVTDYSMNWVRQAPGQGLEWMGWINTETGEPRYTQGFKGRFVFSLDTSVSTAYLQISSLKAEDTAVYYCAREGDYDVFDYWGQGTLVTVSS
# VL: DIVMTQSPDSLAVSLGERATINCRASKSVSTSSYSYMHWYQQKPGQPPKLLIKYVSYLESGVPDRFSGSGSGTDFTLTISSLQAEDVAVYYCQQSREFPYTFGQGTKLEIK
# notes: Produced and purified as IgG; also called Mask humanization variant H3L3
# B7: Humanized variant H7L5 of anti-idiotypic antibody 4.24.72 (IgG) (antibody, V domains shown)
# VH: QVQLVQSGAEVKKPGASVKVSCKASGYTVTDYSMNWVRQAPGQGLEWMGWINTETGEPRYTDDFKGRVTMTRDTSISTAYMELSRLRSDDTAVYYCAREGDYDVFDYWGQGTLVTVSS
# VL: B6 VL with K53Y, Q94H
# notes: Produced and purified as IgG; also called Mask humanization variant H7L5
# B8: Anti-CD3 antibody clone P035.093 in monovalent human IgG1 format (antibody, V domains shown)
# VH: EVQLLESGGGLVQPGGSLRLSCAASGFTFSSYAMNWVRQAPGKGLEWVSRIRSKYNNYATYYADSVKGRFTISRDDSKNTLYLQMNSLRAEDTAVYYCVRASNFPASYVSYFAYWGQGTLVTVSS
# VL: QAVVTQEPSLTVSPGGTVTLTCGSSTGAVTTSNYANWVQEKPGQAFRGLIGGTNKRAPGTPARFSGSLLGGKAALTLSGAQPEDEAEYYCALWYSNLWVFGGGTKLTVL
# notes: Monovalent human IgG1 with crossed VH and VL domains; knob-into-hole; P329G L234A L235A; also called P035.093 (monovalent IgG)
# B9: Anti-CD3 antibody clone P033.078 in monovalent human IgG1 format (antibody, V domains shown)
# VH: B8 VH with S30E, N57E, A106S, Y108F, A113G
# VL: B8 VL
# notes: knob-into-hole; P329G L234A L235A; also called P033.078 (monovalent IgG)
# B10: CD3orig in monovalent human IgG1 format (antibody, V domains shown)
# VH: not shown
# VL: B8 VL
# notes: Monovalent human IgG1 with crossed VH and VL domains; knob-into-hole; P329G L234A L235A; also called CD3orig (monovalent IgG)
# What was measured:
# [1] = biological target: T1, Human CD3ε stalk-Fc(knob)-Avi/CD3δ stalk-Fc(hole) (human); test: SPR, biotinylated human CD3ε/δ on SA chip, TCB at 2 µg/ml; response normalised to anti-huIgG capture and referenced to the unstressed sample; after 2 weeks at pH 6.0/40 °C
# T1 construct: Heterodimeric Fc fusion; also called human CD3ε/δ; Human CD3 epsilon stalk-Fc(knob)-Avi
# Procedure: (§1) In order to assess the effect of the deamidation site removal and its effect on the stability of the antibodies, the optimized anti-CD3 antibodies (in TCB format) were incubated for 14 days at 37° C., pH 7.4 and at 40° C., pH 6 and further analyzed by SPR for their binding capability to human CD3ε/δ. Samples stored at −80° C. pH 6 were used as reference. The reference samples and the samples stressed at 40° C. were in 20 mM His, 140 mM NaCl, pH 6.0, and the samples stressed at 37° C. in PBS, pH 7.4, all at a concentration of 1.0 mg/ml. After the stress period (14 days) samples in PBS were dialyzed back to 20 mM His, 140 mM NaCl, pH 6.0 for further analysis.
# (§2) All SPR experiments were performed on a Biacore T200 instrument (GE Healthcare) at 25° C. with HBS-P+ (10 mM HEPES, 150 mM NaCl pH 7.4, 0.05% Surfactant P20) as running and dilution buffer. Biotinylated human CD3ε/δ (see Example 3, SEQ ID NOs 41 and 42) as well as biotinylated anti-huIgG (Capture Select, Thermo Scientific, #7103262100) were immobilized on a Series S Sensor Chip SA (GE Healthcare, #29104992), resulting in surface densities of at least 1000 resonance units (RU). Anti-CD3 antibodies with a concentration of 2 μg/ml were injected for 30 s at a flow rate of 5 μl/min, and dissociation was monitored for 120 s. The surface was regenerated by injecting 10 mM glycine pH 1.5 for 60 s. Bulk refractive index differences were corrected by subtracting blank injections and by subtracting the response obtained from a blank control flow cell. For evaluation, the binding response 5 seconds after injection end was taken. To normalize the binding signal, the CD3 binding was divided by the anti-huIgG response (the signal (RU) obtained upon capture of the CD3 antibody on the immobilized anti-huIgG antibody). The relative binding activity was calculated by referencing each temperature stressed sample to the corresponding, non-stressed sample.
# [2] = biological target: T1, Human CD3ε stalk-Fc(knob)-Avi/CD3δ …; test: SPR, biotinylated human CD3ε/δ on SA chip, TCB at 2 µg/ml; response normalised to anti-huIgG capture and referenced to the unstressed sample; after 2 weeks at pH 7.4/37 °C
# Procedure: as §1, §2
# [3] = biological target: T2, biotinylated anti-human CD3 IgG (anti-CD3 P035.093) (biotinylated (site not stated)); test: SPR; biotinylated anti-CD3 P035.093 IgG on CAP chip, anti-idiotypic IgG at 1 µg/ml; response normalised to anti-human IgG surface and to the unstressed sample; after 14 d at 37 °C pH 7.4
# T2 construct: IgG format of this reagent is not described further; immobilised on a CAP chip; also called CD3 IgG (P035.093)
# Procedure: Therefore, they were analyzed for thermal stability and remaining target binding after 14 d stress conditions (40° C. at pH6.0 or 37° C. at pH7.4).
# (§3) Flow cell 1 was kept as mock surface. […] Dissociation was monitored for 30 s, the flow rate was set to 5 μl/min. The CAP chip was regenerated by injecting a mix of NaOH and Guadinium-hydrochloride for 120 s, provided in the biotin capture kit. Bulk refractive index differences were corrected by subtracting the response obtained from flow cell 1 (mock surface).
# [4] = biological target: T2, biotinylated anti-human CD3 IgG …; test: SPR; biotinylated anti-CD3 P035.093 IgG on CAP chip, anti-idiotypic IgG at 1 µg/ml; response normalised to anti-human IgG surface and to the unstressed sample; after 14 d at 40 °C pH 6.0
# Procedure: as §3
# [5] = biological target: T1, Human CD3ε stalk-Fc(knob)-Avi/CD3δ …; test: SPR, Biacore T200, 25 °C; monovalent IgG captured by anti-PG antibody on C1 chip, CD3ε/δ-Fc as analyte; triplicates
# Procedure: (§4) Kinetic constants were derived using the Biacore T200 Evaluation Software (GE Healthcare Life Sciences), to fit rate equations for 1:1 Langmuir binding by numerical integration. The half-life (t_{1/2}) of the interaction was calculated using the formula t_{1/2}=ln 2/koff.
# (§5) To analyze the interaction to CD3, IgG molecules were captured for 240 s at 50 nM with a flow rate of 5 μl/min. Human and cynomolgus CD3ε stalk-Fc(knob)-Avi/CD3δ-stalk-Fc(hole) were passed at a concentration of 0.061-250 nM with a flow rate of 30 μl/min through the flow cells for 300 s. The dissociation was monitored for 800 s.
# [6] = biological target: T3, Cynomolgus CD3ε stalk-Fc(knob)-Avi/CD3δ stalk-Fc(hole) (cynomolgus); test: as above
# T3 construct: Heterodimeric Fc fusion; also called cynomolgus CD3ε/δ
# Procedure: as §4, §5
# [7] = biological target: T1, Human CD3ε stalk-Fc(knob)-Avi/CD3δ …; test: SPR, Biacore T200, 25 °C; monovalent IgG captured by anti-PG antibody on C1 chip, CD3ε/δ-Fc as analyte; 1:1 Langmuir fit; triplicates
# Procedure: as §4, §5
# [8] = biological target: T3, Cynomolgus CD3ε stalk-Fc(knob)-Avi/CD3δ …; test: as above
# Procedure: as §4, §5
# [9] = biological target: T1, Human CD3ε stalk-Fc(knob)-Avi/CD3δ …; test: SPR, biotinylated human CD3ε/δ on SA chip, monovalent IgG; response normalised to anti-huIgG capture and referenced to the unstressed sample; after 2 weeks at pH 6.0/40 °C
# Procedure: as §2
# [10] = biological target: T1, Human CD3ε stalk-Fc(knob)-Avi/CD3δ …; test: SPR, monovalent IgG format
# [11] = biological target: T1, Human CD3ε stalk-Fc(knob)-Avi/CD3δ …; test: SPR, biotinylated human CD3ε/δ on SA chip, monovalent IgG; response normalised to anti-huIgG capture and referenced to the unstressed sample; after 2 weeks at pH 7.4/37 °C
# Procedure: as §2
# T3 sequence (chain, as listed by the source mutant limits assumed, chain 1 of 2): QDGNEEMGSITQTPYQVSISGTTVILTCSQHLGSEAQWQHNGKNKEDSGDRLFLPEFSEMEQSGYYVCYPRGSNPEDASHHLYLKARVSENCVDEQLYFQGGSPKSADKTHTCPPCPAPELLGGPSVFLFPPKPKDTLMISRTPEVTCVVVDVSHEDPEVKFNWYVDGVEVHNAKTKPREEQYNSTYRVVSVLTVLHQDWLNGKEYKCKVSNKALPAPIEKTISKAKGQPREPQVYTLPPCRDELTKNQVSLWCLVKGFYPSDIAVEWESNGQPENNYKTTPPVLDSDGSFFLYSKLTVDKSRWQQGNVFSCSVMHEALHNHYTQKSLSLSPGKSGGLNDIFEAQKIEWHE
# T3 sequence (chain, as listed by the source mutant limits assumed, chain 2 of 2): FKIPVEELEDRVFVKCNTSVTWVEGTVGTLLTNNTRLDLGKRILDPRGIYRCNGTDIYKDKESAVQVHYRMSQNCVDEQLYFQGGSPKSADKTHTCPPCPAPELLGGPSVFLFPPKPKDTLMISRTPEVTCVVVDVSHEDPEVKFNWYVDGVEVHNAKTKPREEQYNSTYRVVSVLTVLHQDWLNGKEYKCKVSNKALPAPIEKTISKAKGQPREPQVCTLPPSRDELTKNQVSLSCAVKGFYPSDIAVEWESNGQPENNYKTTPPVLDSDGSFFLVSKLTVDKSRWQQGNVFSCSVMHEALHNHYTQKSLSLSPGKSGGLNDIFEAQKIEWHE
Binder,binding activity [%] [1],binding activity [%] [2],t1/2 [5],Kd [7],binding activity [%] [9],also measured
B1,95%,65%,,,,
B2,97%,95%,,,,
B3,99%,95%,,,,
B4,97%,96%,,,,
B5,98%,98%,,,,
B6,,,,,,Rel. active concentration [%] [3]: 87%; Rel. active concentration [%] [4]: 97%
B7,,,,,,Rel. active concentration [%] [3]: 80%; Rel. active concentration [%] [4]: 98%
B8,,,8.25 min,0.456 nM,100%,t1/2 [6]: 11.8 min; Kd [8]: 0.224 nM
B9,,,8.69 min,0.771 nM,98%,fold of binding half-life over CD3orig [10]: > 2 fold; t1/2 [6]: 11.1 min; koff [7]: 0.00133 s⁻¹; kon [7]: 1.73e+06 M⁻¹ s⁻¹; Kd [8]: 0.403 nM; koff [8]: 0.00104 s⁻¹; kon [8]: 2.6e+06 M⁻¹ s⁻¹; binding activity [%] [11]: 95%
B10,,,3.98 min,4.94 nM,97%,koff [7]: 0.0029 s⁻¹; kon [7]: 587000 M⁻¹ s⁻¹; binding activity [%] [11]: 60%
